Among the data in paper PMC4381056 are dimer percentage (G1-phase), dimer percentage (G2-phase) and dimer percentage (S-phase) values, retold here.

The target of this test is T1, MBD3-GFP (methyl-CpG-binding domain protein 3 fused to GFP), O95983.
T1 chain: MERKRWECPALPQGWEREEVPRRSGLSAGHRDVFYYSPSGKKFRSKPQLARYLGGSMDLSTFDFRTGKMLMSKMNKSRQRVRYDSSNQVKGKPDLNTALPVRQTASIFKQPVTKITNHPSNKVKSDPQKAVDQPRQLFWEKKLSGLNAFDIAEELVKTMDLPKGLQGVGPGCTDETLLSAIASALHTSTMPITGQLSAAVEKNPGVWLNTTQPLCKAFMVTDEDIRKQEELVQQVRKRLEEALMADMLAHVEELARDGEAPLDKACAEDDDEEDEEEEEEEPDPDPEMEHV
The test is described as follows: photon counting histogram. The settings on record: remark: other sources report otherwise.

B1: MBD3-GFP (methyl-CpG-binding domain protein 3 fused to GFP), O95983 1-291 (natural protein)
chain: MERKRWECPALPQGWEREEVPRRSGLSAGHRDVFYYSPSGKKFRSKPQLARYLGGSMDLSTFDFRTGKMLMSKMNKSRQRVRYDSSNQVKGKPDLNTALPVRQTASIFKQPVTKITNHPSNKVKSDPQKAVDQPRQLFWEKKLSGLNAFDIAEELVKTMDLPKGLQGVGPGCTDETLLSAIASALHTSTMPITGQLSAAVEKNPGVWLNTTQPLCKAFMVTDEDIRKQEELVQQVRKRLEEALMADMLAHVEELARDGEAPLDKACAEDDDEEDEEEEEEEPDPDPEMEHV
B1 yielded a dimer percentage (G1-phase) of 84%, a dimer percentage (G2-phase) of 16% and a dimer percentage (S-phase) of 48%.
